# Experimental data as given in patent publication US20080063623A1 (INTEVERT INTERNATIONAL B V, published 2008).
# B1: chicken IL-12 p40 subunit (ChIL-12 p40) (ligand)
# chain: QWKLRENVYVIESEWNDETPAKKVKLTCDTSDEALPVYWKKGTELKGTGKTLTTEVKEFPDAGNYTCLSAKTHEIISYSFFLITKVDSNGQMIRSILKSYKEPSKTFLKCEAKNYSGIFTCSWMTENESPSVKFTIRSLKGSQGDVTCSSPVARTDKSVTEYTAQCQKENYCPFAEEHQPTEMFLEVIDEVEYENYTSSFFIRDIIKPDPPQCQYASTNGTVTWTYPKTWSTPKSYFPLTFRVKVESTKKYKSKVYDADEQSIQIPKTGPKDKISVQARDRYYNSSWSEWSTLCR
# notes: also called chicken p40; clone pND89
# Molecular target: the molecule itself
# Experiment: transfection of COS-7 cells, non-denaturing Western blot of supernatants
# Protocol: COS-7 cells were transfected with 1.5 μg of each cDNA construct using the Invitrogen Life Technologies Lipofectamine™ reagent (as described by the manufacturer) and cultured in 3-cm dishes with DMEM (without FCS and penicillin/streptomycin). After 8 h, transfected cells were washed and cultured in DMEM with penicillin/streptomycin and 10% FCS. After 72 h incubation at 37° C./5% C0₂ the cell culture supernatants were harvested and centrifuged at 13,000 rpm for 10 min at 4° C. to remove cell debris. The supernatants were analyzed via Western blotting and used immediately or stored at −70° C.
# Cell culture supernatants from transfected COS-7 cells were size fractionated using 4-12% Nu-PAGE™ (Invitrogen) and blotted onto nitrocellulose filters (Schleicher & Schuell). Western blots were blocked in 3% skimmed milk (MPBS) in PBS, and subsequently incubated with a polyclonal antibody that was raised against a FeIL-12 p40 peptide diluted 1:300 in MPBS. Blocking and antibody incubation were each performed for 1 h at room temperature. After extensive washing (3 times 5 min), blots were incubated with alkaline peroxidase (AP)-conjugated goat anti-rabbit IgG antibodies (Sanbio) diluted 1:1000 in MPBS for 1 h at room temperature. After washing (3 times 5 min), bound AP-labeled secondary antibodies were visualized via staining. […]
protein,measurement,value
B1,binding result,binds
